Results taken from PMC9290431.
Values joined by “and” are separate entries in the source; they are usually repeats but may differ in a detail not shown here. Equal values may be shown once. Read-outs that look alike come from different tables or passages of the source.

What was measured:
TDP-43 NTD-NLS (human) [1] = test: AUC
TDP-43 NTD-NLS (human) [2] = test: AUC; remark: listed apart in the source

TDP-43 NTD-NLS (domain or fragment) was tested, and the stoichiometry N (TDP-43 NTD-NLS (human) [1]) was 2 and 4 and the stoichiometry N (TDP-43 NTD-NLS (human) [2]) was 8.
